Reference: patent US20240018240A1 (Hoffmann-La Roche, published 2024)
Residue numbers refer to the chain shown, from its start.

T1: cynomolgus PLAP (ALPP) expressed on CHO-K1 cells (cynomolgus, UniProt P05187 23-452 (human entry))
T1 chain: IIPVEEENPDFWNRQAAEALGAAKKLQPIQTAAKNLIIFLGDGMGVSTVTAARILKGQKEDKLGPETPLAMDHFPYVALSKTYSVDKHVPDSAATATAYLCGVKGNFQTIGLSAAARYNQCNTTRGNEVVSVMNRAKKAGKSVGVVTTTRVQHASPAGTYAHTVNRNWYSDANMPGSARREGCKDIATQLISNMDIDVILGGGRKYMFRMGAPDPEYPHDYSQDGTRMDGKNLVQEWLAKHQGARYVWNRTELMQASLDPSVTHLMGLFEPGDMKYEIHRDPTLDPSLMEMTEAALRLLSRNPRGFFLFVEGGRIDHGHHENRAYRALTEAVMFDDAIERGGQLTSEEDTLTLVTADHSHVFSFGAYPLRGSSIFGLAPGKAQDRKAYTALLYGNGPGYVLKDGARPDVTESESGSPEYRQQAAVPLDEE

B1: PLAP H1 CD3 P035.093 TCB (bispecific antibody, human IgG1, kappa, L234A L235A)
heavy 1: not shown
heavy 2: QVQLQESGPGLVKPSETLSLTCTVSGFSLTSYGVSWIRQPPGKGLEWIGVIWEDGSTNYHSALISRVTISVDTSKNQFSLKLSSVTAADTAVYYCARPHYGSSYVGAMEYWGAGTTVTVSSASTKGPSVFPLAPSSKSTSGGTAALGCLVEDYFPEPVTVSWNSGALTSGVHTFPAVLQSSGLYSLSSVVTVPSSSLGTQTYICNVNHKPSNTKVDEKVEPKSCDKTHTCPPCPAPEAAGGPSVFLFPPKPKDTLMISRTPEVTCVVVDVSHEDPEVKFNWYVDGVEVHNAKTKPREEQYNSTYRVVSVLTVLHQDWLNGKEYKCKVSNKALGAPIEKTISKAKGQPREPQVCTLPPSRDELTKNQVSLSCAVKGFYPSDIAVEWESNGQPENNYKTTPPVLDSDGSFFLVSKLTVDKSRWQQGNVFSCSVMHEALHNHYTQKSLSLSP
light 1: DIQMTQSPSSLSASVGDRVTITCRASENIYSYVAWYQQKPGKAPKLLIYNAKSLASGVPSRFSGSGSGTDFTLTISSLQPEDFATYYCQHHYVSPWTFGGGTKLEIKRTVAAPSVFIFPPSDRKLKSGTASVVCLLNNFYPREAKVQWKVDNALQSGNSQESVTEQDSKDSTYSLSSTLTLSKADYEKHKVYACEVTHQGLSSPVTKSFNRGEC
light 2: EVQLLESGGGLVQPGGSLRLSCAASGFTFSSYAMNWVRQAPGKGLEWVSRIRSKYNNYATYYADSVKGRFTISRDDSKNTLYLQMNSLRAEDTAVYYCVRASNFPASYVSYFAYWGQGTLVTVSSASVAAPSVFIFPPSDEQLKSGTASVVCLLNNFYPREAKVQWKVDNALQSGNSQESVTEQDSKDSTYSLSSTLTLSKADYEKHKVYACEVTHQGLSSPVTKSFNRGEC
notes: also called PLAP H1 TCB; PLAP (H1) TCB
B2: PLAP H2 CD3 P035.093 TCB (bispecific antibody, human IgG1, kappa, L234A L235A)
heavy 1: not shown
heavy 2: B1 heavy 2 with P41A, I69M
light 1: B1 light 1
light 2: B1 light 2
notes: also called PLAP H2 TCB; PLAP (H2) TCB
B3: PLAP H3 CD3 P035.093 TCB (bispecific antibody, human IgG1, kappa, L234A L235A)
heavy 1: not shown
heavy 2: B1 heavy 2 with H60N, S61P, A62S, I64K
light 1: B1 light 1
light 2: B1 light 2
notes: 2+1 IgG CrossFab, inverted; also called PLAP H3 TCB; PLAP (H3) TCB
B4: PLAP H4 CD3 P035.093 TCB (bispecific antibody, human IgG1, kappa, L234A L235A)
heavy 1: not shown
heavy 2: B1 heavy 2 with F27G, L29I
light 1: B1 light 1
light 2: B1 light 2
notes: also called PLAP H4 TCB
B5: PLAP H5 CD3 P035.093 TCB (bispecific antibody, human IgG1, kappa, L234A L235A)
heavy 1: not shown
heavy 2: B1 heavy 2 with F27G, L29V
light 1: B1 light 1
light 2: B1 light 2
notes: also called PLAP H5 TCB; PLAP (H5) TCB

Key:
[1] = target: T1, cynomolgus PLAP (ALPP) expressed on …; test: cell-based or functional assay
[2] = target: T2, human PLAP (ALPP) expressed on CHO-K1 cells (human, UniProt P05187 23-506); test: cell-based or functional assay
[3] = target: T3, Human CD3ε stalk-Fc(knob)-Avi/CD3δ stalk-Fc(hole) (human); test: SPR (Biacore T200, 25°C); TCB captured by anti-PG antibody on CM5 chip, 300 nM human CD3ε/δ injected; relative active concentration
T3 construct: Heterodimer of CD3 delta and CD3 epsilon ectodomains fused to a human Fc domain with knob-into-hole modifications and C-terminal Avi-tag; also called human CD3ε/δ; CD3ε/δ
Procedure: SPR experiments were performed on a Biacore T200 instrument (GE Healthcare) at 25° C. with HBS-P+(10 mM HEPES, 150 mM NaCl pH 7.4, 0.05% Surfactant P20) as running and dilution buffer. Anti-PG antibody (see Example 3) was immobilized by amine coupling (using amine coupling kit, Cytiva #BR100050) at a density of >6000 RU on a CM5 Chip (Sensor Chip CM5, Cytiva #29104988). The 10 nM solutions of TCB molecule samples in HBS-P+ were captured for 30 sec at a flow rate 10 μl/min. Then a 300 nM solution of human CD3ε/δ (see Example 3, SEQ ID NOs 24 and 25) was injected for 150 sec association time and 120 sec dissociation time at a flow rate of 10 μl/min. The regeneration of the surface followed by a 35 sec regeneration step with a 20 mM NaOH solution. The data were analyzed with the Biacore T200 Evaluation and Excel software. For the calculation of relative active concentration (RAC) the binding report point (BRP) was used (the BRP is a standard readout point in SPR, maximum response (unit/value) of interaction between antigen and antibody).

[4] = target: T2, human PLAP (ALPP) expressed on CHO-K1 …; test: cell-based or functional assay; remark: listed apart in the source
[5] = target: human ALPG (ALPPL2) expressed on CHO-K1 cells (human, UniProt P10696 20-503); test: cell-based or functional assay
[6] = target: T3, Human CD3ε stalk-Fc(knob)-Avi/CD3δ …; test: SPR single cycle kinetics (Biacore T200, 25°C); TCB captured by anti-PG antibody on CM3 chip, human CD3ε/δ as analyte
Procedure: (§1) The binding kinetics of the PLAP TCB molecules generated in Example 17 were characterized by the single cycle kinetic (SSK) assay. For this assay, again the SPR Biacore T200 was used. The immobilization was performed at 25° C. with HBS-N pH 7.4 as a running buffer (Cytiva #BR100670). The anti-PG antibody (see Example 3) was immobilized by amine coupling (using amine coupling kit, Cytiva #BR100050) at a density of >5000 RU on a CM3 Chip (Cytiva #29104990). The anti-PG antibody stock solution was diluted to a concentration of 25 μg/mL in a 10 mM sodium acetate buffer of pH 5.0 (Cytiva #BR100351). After the immobilization the analysis was performed at 25° C., and PBS-P+(Cytiva #28995084) was used as a running and a dilution buffer. The 3 nM solutions of TCB molecule samples in PBS-P+ were captured with anti-PG antibody on a CM3 sensor chip.
(§2) The derived kinetic rate constants and corresponding affinity values (equilibrium dissociation constant KD) are summarized in Table 26 for the CD3 binder and in Table 27 for the PLAP binder. The data were analyzed with the Biacore T200 Evaluation and Excel software.

[7] = target: T3, Human CD3ε stalk-Fc(knob)-Avi/CD3δ …; test: SPR RAC assay (Biacore T200, 25°C); TCB captured by anti-PG antibody on CM3 chip, 200 nM human CD3ε/δ injected after 100 nM human PLAP
Procedure: (§3) SPR experiments were performed on a Biacore T200 instrument (GE Healthcare). For the immobilization. HBS-N pH 7.4 was used as a running buffer (Cytiva #BR100670). Anti-PG antibody (see Example 3) was immobilized by amine coupling (using amine coupling kit, Cytiva #BR100050) at a density of >6000 RU on a CM3 Chip (Cytiva #29104990). The anti-PG antibody stock solution was diluted to a concentration of 25 μg/mL in a 10 mM sodium acetate buffer of pH 5.0 (Cytiva #BR100351). After the immobilization the analysis was performed at 25° C., and using PBS-P+ (Cytiva #28995084) as a running and a dilution buffer. The 5 nM solutions of TCB molecule samples in PBS-P+ were captured for 30 sec at a flow rate 5 μl/min. Then a 100 nM solution of human PLAP was injected for 90 sec association time and 30 sec dissociation time at a flow rate of 8 μl/min. Thereafter, a 200 nM solution of human CD3ε/δ (see Example 3, SEQ ID NOs 24 and 25) was injected for 90 sec association time and 30 sec dissociation time at a flow rate of 8 μl/min. The regeneration of the surface followed by two 60 sec regeneration steps with a 10 mM NaOH solution. The data were analyzed with the Biacore T200 Evaluation and Excel software. For the calculation of relative active concentration (RAC) the binding report point (BRP) was used. To calculate the RAC, the target and antibody concentrations were referenced to the unstressed sample (−80° C.) as 100% comparison. For the normalization of the protein concentration, reference was made to anti-PG antibody capturing (RAC values).

[8] = target: T4, Human PLAP (soluble, as injected in SPR) (human, UniProt P05187 23-506); test: SPR RAC assay (Biacore T200, 25°C); TCB captured by anti-PG antibody on CM3 chip, 100 nM human PLAP injected
T4 construct: also called PLAP target
Procedure: as §3

[9] = target: T4, Human PLAP (soluble, as injected in SPR); test: SPR single cycle kinetics (Biacore T200, 25°C); TCB captured by anti-PG antibody on CM3 chip, human PLAP as analyte
Procedure: as §1, §2

T4 sequence (P05187 23-506 limits assumed): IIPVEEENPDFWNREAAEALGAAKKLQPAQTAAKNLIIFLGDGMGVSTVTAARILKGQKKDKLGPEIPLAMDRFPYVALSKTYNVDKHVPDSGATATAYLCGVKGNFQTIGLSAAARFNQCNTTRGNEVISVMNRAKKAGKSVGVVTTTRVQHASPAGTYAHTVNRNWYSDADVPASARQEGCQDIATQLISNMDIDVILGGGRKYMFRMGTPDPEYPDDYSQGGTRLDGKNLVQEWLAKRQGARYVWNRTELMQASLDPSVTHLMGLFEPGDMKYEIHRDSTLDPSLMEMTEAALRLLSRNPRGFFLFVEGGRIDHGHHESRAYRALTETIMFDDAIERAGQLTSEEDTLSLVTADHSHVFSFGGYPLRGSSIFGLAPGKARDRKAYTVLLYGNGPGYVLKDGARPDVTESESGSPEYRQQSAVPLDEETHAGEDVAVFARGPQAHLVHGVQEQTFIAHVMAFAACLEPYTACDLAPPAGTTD
T2 sequence (P05187 23-506): as the sequence (P05187 23-506 limits assumed) above

Binder | EC50 (pM), Jurkat NFAT reporter assay to show cynomolgus cross-reactivity [1] | EC50 (pM), Jurkat NFAT reporter assay to show cynomolgus cross-reactivity [2] | RAC % of CD3 binding, stress A [3] | RAC % of CD3 binding, stress B [3] | RAC % of CD3 binding, unstressed [3] | EC50 (pM), Jurkat NFAT reporter assay (luminescence, 6 h) [4] | EC50 (pM), Jurkat NFAT reporter assay (luminescence, 6 h) [5] | Kd [6] | koff [6] | kon [6] | RAC [%] CD3 binding, stress A [7] | RAC [%] CD3 binding, stress B [7] | RAC [%] CD3 binding, unstressed [7] | RAC [%] PLAP binding, stress A [8] | RAC [%] PLAP binding, stress B [8] | RAC [%] PLAP binding, unstressed [8] | Kd [9] | koff [9] | kon [9]
B1 | 45 pM | 98 pM | 100% | 98% | 100% | 37 pM | 40 pM | – | – | – | – | – | – | – | – | – | – | – | –
B2 | – | – | 100% | 96% | 100% | 21 pM | 22 pM | – | – | – | – | – | – | – | – | – | – | – | –
B3 | 48 pM | 98 pM | 99% | 97% | 100% | 35 pM | 35 pM | 0.5 nM | 0.000933 s⁻¹ | 2.09e+06 M⁻¹ s⁻¹ | 99% | 98% | 100% | 100% | 100% | 100% | 5.1 pM | 2.22e-05 s⁻¹ | 4.33e+06 M⁻¹ s⁻¹
B4 | – | – | 100% | 98% | 100% | 36 pM | 34 pM | – | – | – | – | – | – | – | – | – | – | – | –
B5 | 52 pM | 37 pM | 97% | 99% | 100% | 36 pM | 34 pM | – | – | – | – | – | – | – | – | – | – | – | –
